# Source: patent publication US20250109212A1 (BIOSION, published 2025)
# T1: cynomolgus CD40-his protein (Biosion in house made) (cynomolgus, UniProt P25942 21-191 (human entry), limits assumed)
# T1 construct: also called Cyno CD40-his
# T1 chain: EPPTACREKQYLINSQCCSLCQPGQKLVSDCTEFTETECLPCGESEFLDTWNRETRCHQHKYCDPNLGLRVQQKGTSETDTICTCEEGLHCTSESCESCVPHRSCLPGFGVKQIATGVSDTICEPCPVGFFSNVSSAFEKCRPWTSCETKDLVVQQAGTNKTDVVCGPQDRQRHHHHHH
# Assays:
# [1] = molecular target: T2, full length human CD40 (uniprot #P25942-1) on 293T-CD40 cells (human, UniProt P25942 21-277); test: FACS on 293T-CD40 cells, detection with goat anti-human IgG (Fab)-PE, MFI
# T2 construct: whole, on cells
# Procedure: Following an incubation of 40 minutes at 4° C. in dark, cells were washed three times and resuspended in FACS buffer. Fluorescence was measured using a Becton Dickinson FACS Canto II-HTS equipment and plotted against the recombinant fusion protein or controls concentration. Data was analyzed using Graphpad Prism and EC₅₀ values were reported.
# [2] = molecular target: T3, recombinant human CD40-his protein (Cat #: CD0-H5228, Acro biosystems) (human, UniProt P25942 21-193); test: SPR (Biacore T200), sample on Protein A chip, antigen-his analyte, 1:1 fit
# T3 construct: Bought protein
# Source text: (§1) The purified recombinant fusion proteins were characterized for their binding affinity and binding kinetics by Biacore T200 system (GE healthcare, Pittsburgh, PA, USA). The anti-CD40 antibody HuCD40-C1H1-V2 (having the heavy chain and the light chain of SEQ ID NOs: 19 and 20), Selicrelumab (an agonistic anti-CD40 antibody, Roche Inc., prepared in-house with heavy and light chains of SEQ ID NOs: 27 and 28), and SIRPα-Fc fusion proteins, including SIRPαV2D1M1-Fc (IgG2) (SEQ ID NO: 21, X1=I, X2=R, X3=T, X4=K, X5=F), SIRPαV2D1M2-Fc (IgG2) (SEQ ID NO: 21, X1=I, X2=R, X3=T, X4=R, X5=V), SIRPα-isoform2-Fc (SEQ ID NO: 25) were used as positive controls.
# (§2) A Protein A chip (Cat #: 29-1275-56, GE healthcare) was used for affinity determination. The recombinant fusion proteins of the disclosure and the positive controls each at the concentration of 2 μg/ml were respectively flowed onto the chip at a flow rate of 10 μl/min. Then, serially diluted recombinant human CD40-his proteins (Cat #: CD0-H5228, Acro biosystems), human CD47-his proteins (Cat #: CD7-H5227, Acro biosystems), cynomolgus CD40-his proteins (Biosion in house made, SEQ ID NO: 29) or cynomolgus CD47-his proteins (Cat #: CD7-C52H1, Acro biosystems), 2-fold dilution in HBS-EP⁺ buffer (provided by Biacore) with a starting concentration of 200 nM, were flowed onto the chip at a flow rate of 30 μl/min. The association kinetics was followed for 2 minutes and the dissociation kinetics was followed for 10 minutes. The association and dissociation curves were fit to a 1:1 Langmuir binding model using the Biacore evaluation software.
# [3] = molecular target: human CD40-Fc protein (prepared in-house) (human); test: competitive ELISA: human CD40-Fc coated, blocked ligand biotin-labeled human CD40L-his, OD(450-630)
# Procedure: (§3) The ability of the recombinant fusion proteins of the disclosure to block CD40-CD40L binding was measured in a competitive ELISA assay. Briefly, 100 μl/well human CD40-Fc proteins (prepared in-house with amino acid sequence of SEQ ID NO: 22) were coated on 96-well micro plates at 2 μg/mL in coating buffer (carbonate/bicarbonate buffer) and incubated overnight at 4° C. The next day, the plates were washed once with wash buffer (PBS+0.05% v/v Tween-20, PBST), and then blocked with 5% w/v non-fatty milk in PBST for 2 hours at 37° C. The plates were then washed 4 times using the wash buffer.
# Serially diluted recombinant fusion proteins of the disclosure or controls (starting at 10 µg/mL with a 5-fold serial dilution) in PBST with 2.5% w/v non-fatty milk were added to the CD40-Fc bound plates, 100 μl per well, and incubated at 37° C. for 40 minutes. The plates were washed 4 times using wash buffer, and then added and incubated for 40 minutes at 37° C. with 100 μl/well 95 ng/mL biotin-labeled human CD40L-his protein (Cat #: 10239-H08E, Sino biological). The plates were washed again using wash buffer, added with 100 μl/well streptavidin conjugated HRP (1:10000 dilution in PBST buffer, Cat #: 016-030-084, Jackson ImmunoResearch) and incubated for 40 minutes at 37° C. The plates were washed again using wash buffer. […] The absorbance was read on a microplate reader using the dual wavelength mode with 450 nm for TMB and 630 nm as the reference wavelength, then the OD (450-630) values were plotted against the recombinant fusion protein or controls concentration. Data was analyzed using Graphpad Prism and IC₅₀ values were reported.
# [4] = molecular target: T1, cynomolgus CD40-his protein (Biosion in …); test: SPR (Biacore T200), sample on Protein A chip, antigen-his analyte, 1:1 fit
# Source text: as §1, §2
# [5] = molecular target: T4, human CD47-his protein (Cat #: CD7-H5227, Acro biosystems) (human, UniProt Q08722 19-139); test: as above
# T4 construct: Bought protein
# Source text: as §1, §2
# [6] = molecular target: T5, cynomolgus CD47-his protein (Cat #: CD7-C52H1, Acro biosystems) (cynomolgus, UniProt A0A2K5X523 19-139); test: as above
# T5 construct: Bought protein; also called Cyno CD47-his
# Source text: as §1, §2
# [7] = molecular target: T6, biotin-labeled human CD47-Fc (Biosion in house made) (human, biotin-labeled (sites not given)); test: competitive ELISA: binder premixed with biotin-labeled human CD47-Fc, blocked partner coated human CD172a-Fc, OD(450-630)
# T6 construct: also called Human CD47-Fc protein
# Procedure: as §3, with “CD47-CD172a” for “CD40-CD40L”, “CD172a-Fc” for “CD40-Fc”, “24)” for “22)”, “using” for “using the”
# Serially diluted recombinant fusion proteins of the disclosure or controls (starting at 100 nM with a 5-fold serial dilution) were mixed with 20 ng/ml biotin-labeled human CD47-Fc (Biosion in house made, SEQ ID NO: 23) in PBST with 2.5% w/v non-fatty milk. The mixtures were incubated at 37° C. for 40 minutes, and respectively added to the CD172a-Fc bound plates, 100 μl per well. The plates were incubated at 37° C. for 40 minutes, washed 4 times using wash buffer, added with 100 μl/well streptavidin conjugated HRP (1:10000 dilution in PBST buffer, Cat #: 016-030-084, Jackson ImmunoResearch), incubated for 40 minutes at 37° C., and washed again using wash buffer. […] The plates were read on a microplate reader using the dual wavelength mode with 450 nm for TMB and 630 nm as the reference wavelength, and the OD (450-630) values were plotted against the recombinant fusion protein or controls concentration. Data was analyzed using Graphpad Prism and IC₅₀ values were reported. Wild-type SIRPαV2D1-Fc (IgG2) (SEQ ID NO: 21, X1=V, X2=K, X3=S, X4=K, X5=F) was used as a positive control.
Binder,EC50 [1] [nM],Kd [2] [nM],koff [2] [s⁻¹],kon [2] [M⁻¹ s⁻¹],IC50 [3] [nM],Kd [4] [nM],koff [4] [s⁻¹],kon [4] [M⁻¹ s⁻¹],Kd [5] [nM],koff [5] [s⁻¹],kon [5] [M⁻¹ s⁻¹],Kd [6] [nM],koff [6] [s⁻¹],kon [6] [M⁻¹ s⁻¹],IC50 [7] [nM]
"BSI038×S-003 (bispecific antibody, human IgG2, kappa, Wild-type SIRPαV2D1 linked to C-terminus of each light chain of HuCD40-C1H1-V2 (human IgG2)) heavy: EVQLVESGGGLVKPGGSLRLSCAASGFTFSNYGISWVRQAPGKGLEWVSSISSGGDNTYYPDNVKGRFTISRDNAKNSLYLQMNSLRAEDTAVYYCARAGEKAMDYWGQGTLVTVSSASTKGPSVFPLAPCSRSTSESTAALGCLVKDYFPEPVTVSWNSGALTSGVHTFPAVLQSSGLYSLSSVVTVPSSNFGTQTYTCNVDHKPSNTKVDKTVERKCCVECPPCPAPPVAGPSVFLFPPKPKDTLMISRTPEVTCVVVDVSHEDPEVQFNWYVDGVEVHNAKTKPREEQFNSTFRVVSVLTVVHQDWLNGKEYKCKVSNKGLPAPIEKTISKTKGQPREPQVYTLPPSREEMTKNQVSLTCLVKGFYPSDIAVEWESNGQPENNYKTTPPMLDSDGSFFLYSKLTVDKSRWQQGNVFSCSVMHEALHNHYTQKSLSLSPGK light: not shown",1.54,0.71,0.00183,2.57e+06,2.93,–,–,–,–,–,–,–,–,–,–
"BSI038×S-001 (bispecific antibody, human IgG2, kappa, Wild-type SIRPαV2D1 linked to C-terminus of each heavy chain of HuCD40-C1H1-V2 (human IgG2)) heavy: not shown light: EIVLTQSPATLSLSPGERATLSCRASQTINNNLHWYQQKPGQAPRLLIKYASQSISGIPARFSGSGSGTDFTLTISSLEPEDFAVYFCQQFSSWPLTFGGGTKVEIKRTVAAPSVFIFPPSDEQLKSGTASVVCLLNNFYPREAKVQWKVDNALQSGNSQESVTEQDSKDSTYSLSSTLTLSKADYEKHKVYACEVTHQGLSSPVTKSFNRGEC",1.45,0.771,0.00188,2.44e+06,~2.21,–,–,–,–,–,–,–,–,–,–
"Selicrelumab (antibody, human IgG2, kappa, V domains shown, Agonistic anti-CD40 antibody, prepared in-house) VH: not shown VL: DIQMTQSPSSVSASVGDRVTITCRASQGIYSWLAWYQQKPGKAPNLLIYTASTLQSGVPSRFSGSGSGTDFTLTISSLQPEDFATYYCQQANIFPLTFGGGTKVEIKR",2.28,6.41,0.00231,360000,3.33,16.8,0.00219,131000,–,–,–,–,–,–,–
"SIRPαV2D1M1-Fc (IgG2) (Fc fusion, also called SIRPαV2M1-Fc(IgG2)) EEELQVIQPDKSVSVAAGESAILHCTITSLIPVGPIQWFRGAGPARELIYNQREGHFPRVTTVSETTKRENMDFSISISNITPADAGTYYCVKFRKGSPDTEFKSGAGTELSVRAKPSAPVVSGPAARATPGGGGSGGGGSERKCCVECPPCPAPPVAGPSVFLFPPKPKDTLMISRTPEVTCVVVDVSHEDPEVQFNWYVDGVEVHNAKTKPREEQFNSTFRVVSVLTVVHQDWLNGKEYKCKVSNKGLPAPIEKTISKTKGQPREPQVYTLPPSREEMTKNQVSLTCLVKGFYPSDIAVEWESNGQPENNYKTTPPMLDSDGSFFLYSKLTVDKSRWQQGNVFSCSVMHEALHNHYTQKSLSLSPGK",–,–,–,–,–,–,–,–,0.952,0.000401,421000,4.88,0.000371,76000,8.87
"SIRPαV2D1M2-Fc (IgG2) (Fc fusion, also called SIRPαV2M2-Fc(IgG2)) EEELQVIQPDKSVSVAAGESAILHCTITSLIPVGPIQWFRGAGPARELIYNQREGHFPRVTTVSETTRRENMDFSISISNITPADAGTYYCVKFRKGSPDTEVKSGAGTELSVRAKPSAPVVSGPAARATPGGGGSGGGGSERKCCVECPPCPAPPVAGPSVFLFPPKPKDTLMISRTPEVTCVVVDVSHEDPEVQFNWYVDGVEVHNAKTKPREEQFNSTFRVVSVLTVVHQDWLNGKEYKCKVSNKGLPAPIEKTISKTKGQPREPQVYTLPPSREEMTKNQVSLTCLVKGFYPSDIAVEWESNGQPENNYKTTPPMLDSDGSFFLYSKLTVDKSRWQQGNVFSCSVMHEALHNHYTQKSLSLSPGK",–,–,–,–,–,–,–,–,1.07,0.000417,388000,7.01,0.000438,62400,11.8
